In patent US20200188499A1:

Tests used:
[1] = target: VARITECT (human polyclonal antibodies directed against Varicella Zoster antigens); experiment: inhibition ELISA with VARITECT; gE content by ELISA divided by Lowry protein; gE before lyophilisation
[2] = target: VARITECT (human polyclonal antibodies directed against Varicella Zoster antigens); experiment: inhibition ELISA with VARITECT; gE content by ELISA divided by Lowry protein; lyophilised gE
[3] = target: VARITECT (human polyclonal antibodies directed against Varicella Zoster antigens); experiment: inhibition ELISA with VARITECT; gE content by ELISA divided by Lowry protein; co-lyophilised gE/AS01
[4] = target: VARITECT (human polyclonal antibodies directed against Varicella Zoster antigens); experiment: inhibition ELISA with VARITECT; gE content by ELISA divided by Lowry protein; control VZV gE vaccine
[5] = target: VARITECT (human polyclonal antibodies directed against Varicella Zoster antigens); experiment: inhibition ELISA with VARITECT; gE content divided by titer of the standard; control VZV gE vaccine
[6] = target: VARITECT (human polyclonal antibodies directed against Varicella Zoster antigens); experiment: inhibition ELISA with VARITECT; gE content divided by titer of the standard; lyophilised gE
[7] = target: VARITECT (human polyclonal antibodies directed against Varicella Zoster antigens); experiment: inhibition ELISA with VARITECT; gE content by ELISA divided by Lowry protein; sample gE/AS01 before lyophilisation
[8] = target: VARITECT (human polyclonal antibodies directed against Varicella Zoster antigens); experiment: inhibition ELISA with VARITECT; gE content divided by titer of the standard; co-lyophilised gE/AS01

## VZV gE antigen (truncated form of the Varicella Zoster Virus glycoprotein E) (from UniProt P09259 31-546)
[1]
  Antigenic activity (gE/prot): 1.05
[2]
  Antigenic activity (gE/prot): 1.01
[3]
  Antigenic activity (gE/prot): 0.99
[4]
  Antigenic activity (gE/prot): 1.15
[5]
  Potency: 0.92
[6]
  Potency: 0.98
[7]
  Antigenic activity (gE/prot): 0.96
[8]
  Potency: 1.02
